The values that follow come from publication PMC11764342, “A Novel Nitrite Reductase from Acinetobacter haemolyticus for Efficient Degradation of Nitrite” (Biomolecules, 2025).

Substrate in this data set: O=NO
Put plainly: purified protein. It is filed as biochemical, Acinetobacter haemolyticus. As to conditions: dithionite-reduced methyl viologen as electron donor, 30 °C, optimum pH (printed as 7.5 in abstract, 7 in results; assay PBS pH 7.0), NaNO2 0.51-2.17 mmol/L.

B1: AhNiR (Acinetobacter haemolyticus CIP 64.3 = MTCC 9819) (protein)
chain: MYLYTDFDQQLINQRVAQFRDQTERYLAGKLTEDEYRPLRLQNGLYVQRYAPMLRIAVPYGLMNTKQLRKIAEIATEYDRGYAHVSTRQNIQLNWPALEDVPDILEELATVQMHAVQTSGNCIRNTTTDQFAGVVAGEIADPRPTCELIRQWSTFHPEFAFLPRKFKIAVSALAETDRAATAFHDIGVYIVRNEAGEIGYKIMAGGGLGRTPIIGSVIRDFLPREDLIAYLEATLRVYNLHGRRDNKYKARIKILVKALTPEVFAQKVEAEFEHTREALKIQPEILKKLDEEFTPFDYQDLEDQDFTALFAEYPKFKQWFNVNTNAHKVKGYRIVTISLKRAGIAPGDMTSEEMNLIADLADKYTFGEFRTTHEQNISLVDVPQKDLFELWQTLEQNDMARAHIGFITDIICCPGGDFCSLANAKSIPISEAITRRFEDLDTIYNLGELDLNISGCMNACGHHHVGNIGILGVDKKGAEFYQITLGGNADHDASIGDILGPSFAADAVPDVIEEILNTYLDLRTEGERFIDTYRRVGIQPFKERAYA
notes: whole gene in pET28a (BamHI/XhoI), N-terminal His tag, E. coli BL21(DE3), Ni-NTA; predicted 61929 Da
As a reminder, the Km is the concentration of substrate that gives half-maximal velocity. For B1, the Km was 1530 µM.
